The text below walks through data of patent US20240084003A1 (SIMCERE ZAIMING PHARMACEUTICAL, published 2024).

Broadly, the EC50 is the concentration that produces a half-maximal response.

The labels stand for the following.
T1: human CD22, full length, on CHO-K1-human CD22 2C4 cells (human, UniProt P20273 20-847)
T1 construct: Full-length human CD22 (NCBI NP_001762.2) stably transfected into CHO-K1
T1 sequence: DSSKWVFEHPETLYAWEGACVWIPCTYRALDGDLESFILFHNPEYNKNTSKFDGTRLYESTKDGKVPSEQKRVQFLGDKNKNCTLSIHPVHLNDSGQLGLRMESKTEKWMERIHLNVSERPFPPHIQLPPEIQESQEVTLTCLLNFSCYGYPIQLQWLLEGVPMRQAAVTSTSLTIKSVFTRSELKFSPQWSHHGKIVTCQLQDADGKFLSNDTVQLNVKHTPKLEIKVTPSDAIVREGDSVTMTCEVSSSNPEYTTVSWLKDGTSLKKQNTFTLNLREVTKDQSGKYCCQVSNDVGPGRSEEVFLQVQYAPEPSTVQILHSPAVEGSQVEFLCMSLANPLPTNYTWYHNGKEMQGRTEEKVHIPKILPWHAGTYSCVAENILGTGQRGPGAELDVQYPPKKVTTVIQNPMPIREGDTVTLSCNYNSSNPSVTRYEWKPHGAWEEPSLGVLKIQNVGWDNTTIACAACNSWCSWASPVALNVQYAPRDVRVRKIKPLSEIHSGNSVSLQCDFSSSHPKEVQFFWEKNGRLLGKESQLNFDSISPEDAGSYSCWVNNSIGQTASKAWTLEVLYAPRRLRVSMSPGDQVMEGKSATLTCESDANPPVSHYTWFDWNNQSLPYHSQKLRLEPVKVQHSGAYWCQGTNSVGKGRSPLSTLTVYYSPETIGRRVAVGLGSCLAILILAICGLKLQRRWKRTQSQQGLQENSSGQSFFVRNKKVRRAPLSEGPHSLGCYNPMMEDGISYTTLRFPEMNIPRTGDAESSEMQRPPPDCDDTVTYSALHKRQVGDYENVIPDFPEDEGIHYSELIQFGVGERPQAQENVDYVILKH

T2: murine CD22 protein (ACROBiosystems, SI2-M52Ha) (murine, UniProt P35329 22-708)
T2 construct: extracellular domain; also called murine CD22-ECD; murine CD22-ECD-His
T2 sequence (looked up): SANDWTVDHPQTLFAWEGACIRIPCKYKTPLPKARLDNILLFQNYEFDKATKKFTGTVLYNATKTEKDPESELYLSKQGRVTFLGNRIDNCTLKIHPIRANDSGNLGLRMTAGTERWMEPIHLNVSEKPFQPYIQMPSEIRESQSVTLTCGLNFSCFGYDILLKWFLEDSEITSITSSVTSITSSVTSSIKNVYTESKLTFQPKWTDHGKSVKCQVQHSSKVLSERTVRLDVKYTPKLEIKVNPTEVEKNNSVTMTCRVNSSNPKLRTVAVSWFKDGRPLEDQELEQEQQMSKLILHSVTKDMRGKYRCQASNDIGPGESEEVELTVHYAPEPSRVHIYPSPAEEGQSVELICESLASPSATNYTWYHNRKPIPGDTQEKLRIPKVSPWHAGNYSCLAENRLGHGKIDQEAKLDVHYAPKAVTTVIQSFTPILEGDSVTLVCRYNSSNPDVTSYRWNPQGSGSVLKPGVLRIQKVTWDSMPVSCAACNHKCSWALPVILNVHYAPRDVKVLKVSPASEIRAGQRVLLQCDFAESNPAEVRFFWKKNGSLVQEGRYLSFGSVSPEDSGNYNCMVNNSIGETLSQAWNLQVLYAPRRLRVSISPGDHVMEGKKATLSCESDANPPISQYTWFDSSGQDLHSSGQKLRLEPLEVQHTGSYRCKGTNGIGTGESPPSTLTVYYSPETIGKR

T3: human CD22, endogenous on Raji cells (human, UniProt P20273 20-847)
T3 construct: whole, on cells; Endogenous protein of the Raji cell line
T3 sequence (looked up): T1 sequence

B1: F1.224.1 human-murine chimeric antibody (antibody, human IgG1, kappa, V domains shown)
VH: EVLLHQSGPELVKPGASVKISCKASGYTFTDFNMDWVRQRHGQSLEWIGDVNPNNGGTIYNQKFKGKATLTVDKSSSTVYMDLRSLTSDDTAVYYCVRLGTSDYGEAWFISWGQGTVVTVSA
VL: DIVLTQSPASLAVSLGQRATISCRASQSVSTPRYSFMHWYQQKPGQPPKLLIKYASNLESGFPARFTGSGSGTDFTLNIHPVEEEDTAAYYCQQSWAIPWTFGGGTKLEIKR
notes: Chimeric, human IgG1 / kappa; VL tied by name
B2: F1.280.1 human-murine chimeric antibody (antibody, human IgG1, kappa, V domains shown)
VH: QIQLVQSGPELKKPGETVKISCKASGYTFTTYGMSWVKQTPGKGLTWMGWINTDSGVPTYADDFKRRFAFSLEASATTAYLQINNLKNEDTATYFCARGGPDYWGQGTTLTVSS
VL: DILLTQSPATLSVTPGETVSLSCRASQSIYKNLHWYHQKSHRSPRLLIKYASDSISGIPSRFTGSGSGTNFTLSINSVKPEDEGIYYCLQGYIVPLTFGAGTKLELKR
notes: Chimeric, human IgG1 / kappa
B3: F1.120.15 human-murine chimeric antibody (antibody, human IgG1, kappa, V domains shown)
VH: QVQLQQSGPELVKPGASVKISCKASGNAFSNSWMNWVKQRPGKGLEWIGRVYSEDGDTQYNGKFRDKATLTADRSTSTAYMQLSSLTSEDSAVYFCARWLIYYGTYGAMDYWGQGTSVTVSS
VL: DIQMTQTTSSLSASLGDRVTISCRASQDINNYLNWYHQKPDGTVKLLIYFTSRPYSGVPSRFSGSGSGTDYSLTISNLEQEDIATYFCQQGNTLPWTFGGGTKLEIKR
notes: Chimeric, human IgG1 / kappa
B4: F1.250.16 human-murine chimeric antibody (antibody, human IgG1, kappa, V domains shown)
VH: QVQLQQSGAEQVKPGASVKMSCKASGYTFTTYPIEWMKQNHGESLDWIGNIHPYNDDTEYNEKFKGKATLTVEKSSNTVFLELSRLTSDDSAVYYCVRGDYYNSRYWYFDVWGTGTTVTVSS
VL: DIVMTQSQKFMSTTVGDRVSITCKAGQNVRTAVAWYQQKPGQSPKLLIYSASTRYIGVPERFTGSGSGTDFTLTITNMQSEDLADYFCQQYSSFPLTFGTGTKLELKR
notes: as for B1
B5: F1.216.2 human-murine chimeric antibody (antibody, human IgG1, kappa, V domains shown)
VH: QVQLQQSGPEVVRPGASVKISCKASGYAFSSSWMNWMKQRPGKALEWIGRIYPGDGDTNYSGEFKVKATLTADKSSSTAYMQLSSLTSEDSAVYFCAREGSYYSNPWYFDYWGQGTTLTVSS
VL: DVLVTQTPLSLPVSLGDQASISCRSSQSIVQSNGDTYLEWYLQKPGQSPKLLIYKVSNRFSGVPDRFSGSGSGTDFTLKISRVEAEDLGVYYCFQGSHVPFTFGSGTKLEIKR
notes: Chimeric, human IgG1 / kappa

The first test concerns the target T1, human CD22, full length, on …. As to the kind of experiment: FACS, CHO-K1-human CD22 2C4 cells. An excerpt:
(§1) The required cells were scale-up cultured in a T-75 cell culture flask to the logarithmic growth phase. For the adherent cell CHO-K1, the medium was aspirated, the cells were washed 2 times with PBS buffer, and then digested with trypsin. After the digestion was terminated, the cells were washed 2 times with PBS buffer. For suspension cell Raji, the medium supernatant was directly centrifuged and discarded, and the cell pellet was washed 2 times with PBS. After counting the cells in the previous step, the cell pellet was resuspended with [PBS+2% (w/w) BSA] blocking solution to 2×10⁶ cells/ml, and added to a 96-well FACS reaction plate at 50 μl/well, and then the chimeric antibody test sample was added at 50 μl/well, and incubated on ice for 2 hours. The mixture was centrifuged and washed 3 times with PBS buffer, Alexa Flour 488-labeled secondary antibody (purchased from Invitrogen, catalog number: A-11013) was added at 50 μl/well, and incubated on ice for 1 hour. The obtained mixture was centrifuged and washed 5 times with PBS, and FACS (FACS Canto™, purchased from BD Company) was used for detection and result analysis. Data analysis was performed by software (CellQuest) to obtain the mean fluorescence density (MFI)of the cells. And then software (GraphPad Prism8) was used for analysis, data fitting, and EC50 value calculation. […] The same method was used to detect the binding of the chimeric antibodies to endogenous CD22-negative cell MoLT4 cells (purchased from ATCC, CRL-1582) and CHO-K1 cells.
B1: the EC50 was determined as 990 pM and the “Maximum mean fluorescence intensity” value was 30400 MFI.

Take B2: it took 920 pM to reach a half-maximal effect (EC50) and the “Maximum mean fluorescence intensity” value was 43800 MFI.

With B3, it took 1070 pM to reach a half-maximal effect (EC50) and the “Maximum mean fluorescence intensity” value amounted to 27900 MFI.

In the case of B4, the EC50 is 490 pM and the “Maximum mean fluorescence intensity” value was found to be 37400 MFI.

With B5, the concentration giving a half-maximal response (EC50) came out at 320 pM and the “Maximum mean fluorescence intensity” value came to 31500 MFI.

The target in the next test is T2, murine CD22 protein (ACROBiosystems, …). The test is described as follows: ELISA, coated murine CD22, 100 nM Ab. Here is the method:
(§2) In order to detect the binding activity of CD22 human-murine chimeric antibodies to CD22 protein, the purified human CD22-ECD-His protein obtained in Example 2 was diluted with PBS to a final concentration of 2 μg/mL, and then added to 96-well ELISA plate at 100 μl/well. The plate was sealed with plastic film and incubated overnight at 4° C., the plate was washed 2 times with PBS the next day, and then a blocking solution [PBS+2% (w/w) BSA] was added for blocking at room temperature for 2 hours. […] After incubation at 37° C. for 2 hours, the plate was washed 3 times with PBS. HRP (horseradish peroxidase)-labeled secondary antibody (purchased from Sigma, catalog number: A0170) was added, and incubated at 37° C. for 2 hours, and the plate was washed 5 times with PBS. TMB substrate was added at 50 μl/well, and incubated at room temperature for 30 minutes, then a stop solution (1.0 N HCl) was added at 50 μl/well.
(§3) In order to detect the species cross-binding activity of the chimeric antibodies, an ELISA plate was coated with commercial murine CD22 protein (ACROBiosystems, catalog number: SI2-M52Ha) and monkey CD22 protein (ACROBiosystems, catalog number: SI2-R52Ha), respectively, and the ELISA detection was performed according to the method in Example 5.1.
A general note: ELISA stands for enzyme-linked immunosorbent assay.
The molecule B1 yielded an OD450 of 0.07 OD450.

In turn, B2 displayed an OD450 of 0.16 OD450.

Regarding B3, the OD450 is 0.06 OD450.

Molecule B4 returned an OD450 of 0.06 OD450.

B5 displayed an OD450 of 0.08 OD450.

For another test the target is unchanged. As to the kind of experiment: ELISA, coated murine CD22, 0.1 nM Ab. Here is the method: as §2, §3
As to B1, the OD450 turned out to be 0.05 OD450.

Regarding B2, the OD450 is 0.05 OD450.

Turning to B3, the OD450 was determined as 0.05 OD450.

B4 gave an OD450 of 0.05 OD450.

For B5, the OD450 amounted to 0.05 OD450.

For the next test the target is unchanged. The test is described as follows: ELISA, coated murine CD22, 0.0001 nM Ab. How it is done: as §2, §3
Take B1: the OD450 came out at 0.05 OD450.

B2 came in with an OD450 of 0.05 OD450.

B3 gave an OD450 of 0.05 OD450.

B4 had an OD450 of 0.05 OD450.

As to B5, the OD450 worked out at 0.06 OD450.

The target is the same in a further test. The test is described as follows: ELISA, coated murine CD22, 10 nM Ab. Here is the method:
as §2, §3
In turn, B1 returned an OD450 of 0.1 OD450.

With B2, the OD450 amounted to 0.07 OD450.

B3 returned an OD450 of 0.06 OD450.

B4 yielded an OD450 of 0.06 OD450.

B5 came in with an OD450 of 0.06 OD450.

A further test has the same target. As to the kind of experiment: ELISA, coated murine CD22, 0.01 nM Ab. Here is the method:
as §2, §3
Turning to B1, the OD450 was found to be 0.06 OD450.

B2 yielded an OD450 of 0.05 OD450.

For the molecule B3, the OD450 was 0.05 OD450.

Turning to B4, the OD450 worked out at 0.05 OD450.

Turning to B5, the OD450 stood at 0.05 OD450.

The target of the next test is T3, human CD22, endogenous on Raji cells. As to the kind of experiment: FACS, Raji cells.
Source text: as §1
Take B1: the response was half-maximal at 650 pM (EC50) and the “Maximum mean fluorescence intensity” value amounted to 23600 MFI.

On to B2, for which the EC50 came to 500 pM and the “Maximum mean fluorescence intensity” value is 25000 MFI.

Turning to B3, the concentration for a half-maximal effect (EC50) is 890 pM and the “Maximum mean fluorescence intensity” value was determined as 23700 MFI.

B4: the 50% effective concentration (EC50) came out at 160 pM and the “Maximum mean fluorescence intensity” value was 25000 MFI.

Consider B5, for which the midpoint of the response, the EC50, lay at 160 pM and the “Maximum mean fluorescence intensity” value is 25300 MFI.

The next test has as its target T2, murine CD22 protein (ACROBiosystems, …). As to the kind of experiment: ELISA, coated murine CD22, 0.001 nM Ab. How it is done: as §2, §3
B1: the OD450 was 0.05 OD450.

In turn, B2 showed an OD450 of 0.05 OD450.

With B3, the OD450 is 0.05 OD450.

With B4, the OD450 stood at 0.05 OD450.

As for B5, the OD450 was 0.05 OD450.

The next test shares this target. As to the kind of experiment: ELISA, coated murine CD22, 0.00001 nM Ab. How it is done: as §2, §3
Molecule B1 gave an OD450 of 0.06 OD450.

Molecule B2 came in with an OD450 of 0.06 OD450.

B3 registered an OD450 of 0.06 OD450.

For B4, the OD450 is 0.06 OD450.

Take B5: the OD450 amounted to 0.06 OD450.
